The data set concerns the molecule itself. The data set is described as follows: SEC; Nesprin-2-SMC released from GST by thrombin, on a Sephadex G-200 gel filtration column; markers ovalbumin 43 kDa, conalbumin 75 kDa, aldolase 158 kDa; fractions also checked by SDS-PAGE. For orientation: SEC sorts molecules by how far they enter the pores of the column.

B1: Nesprin-2-SMC (domain or fragment, human, UniProt Q8WXH0 1436-1766, looked up)
chain: NNELLKNIQDVQSQISKIGLKDPTVPAVKHRKKSLIRLDKVLDEYEEEKRHLQEMANSLPHFKDGREKTVNQQCQNTVVLWENTKALVTECLEQCGRVLELLKQYQNFKSILTTLIQKEESVISLQASYMGKENLKKRIAEIEIVKEEFNEHLEVVDKINQVCKNLQFYLNKMKTFEEPPFEKEANIIVDRWLDINEKTEDYYENLGRALALWDKLFNLKNVIDEWTEKALQKMELHQLTEEDRERLKEELQVHEQKTSEFSRRVAEIQFLLQSSEIPLELQVMESSILNKMEHVQKCLTGESNCHALSGSTAELREDLDQAKTQIGMTES
notes: Nesprin-2, human, SMC domain, aa 1436-1766, spectrin repeats 11-13; Calculated molecular weight 38.78 kDa (39 kDa); also called Nesprin-2-SMC domain; SMC polypeptide; source: E. coli XL-1 blue, purified (Glutathione-Sepharose 4B, released from GST by thrombin cleavage); not shown: GST, N-terminal, cleaved
In the case of B1, the binding result was “binds”.

The values above are taken from article PMC5763115, “Nesprin-2 Interacts with Condensin Component SMC2” (International Journal of Cell Biology, 2017).
